Experimental data published in patent US20030134779A1, “Method and composition for treatment and/or prevention of antibiotic-resistant microorganism infections” (priority 2002, published 2003).

Columns and labels:
Assay type in all cases: cell-based, Staphylococcus aureus
S. aureus SHY97-4320 [1] = experiment: SDS-PAGE protein profile of whole cells
Method: Staphylococcus aureus SHY97-4320 cells growth in MHB containing test compounds were suspended in electrophoresis sample buffer containing 2% sodium dodecyl sulfate (SDS) and 5% 2-mercaptoethanol to a final concentration of 0.1 g per ml. The samples were heated to 100° C. for 5 min before being loaded for electrophoresis on a discontinuous 0.1% SDS-polyacrylamide gel (SDS PAGE) with 6% polyacrylamide stacking gel and 10 or 12% polyacrylamide running gel. Gels were run on a Mini-Protean® II apparatus (Bio Rad laboratories, Richmond, Calif.). Protein profiles were visualised by staining with coomassie brilliant blue R-250 or by silver staining.

S. aureus SHY97-4320 [2] = experiment: WGA-gold labelling of cell wall and cell division, electron microscopy
Method: To investigate the mechanism of action of LF in combination with penicillin G on cell division, transmission electron microscopy was also performed on thin section of a β-lactamase producing S. aureus SHY97-4320. Bacterial cells were grown in MHB containing 8 μg/ml of penicillin G, 1 mg/ml LF alone or in combination for 4-h at 37° C. with agitation at 150 rpm. Bacteria were harvested and incubated or not for 2-h in 0.02 M Tris (pH 7.4) containing 0.15 M NaCl, 0.5 mg/ml and 50 μl of wheat germ agglutinin (WGA) gold (Sigma Chemicals, St-Louis, Mo.) for 2 h. Bacteria cell morphology was evaluated by transmission electron microscopy as previously described. Effects of treatments were evaluated and compared by “t” test. […] The WGA has an affinity for N-acetyl-β-D-glucosamyl residues and N-acetyl-β-D-glucosamine oligomer. After treatment with LF, S. aureus cells were less covered (P<0.005) with WGA-gold (FIG. 12 and Table 3).

S. aureus SHY97-3906 = experiment: Checkerboard MICs and FIC index, penicillin with bovine LF
Method: The MICs were determined by both macrodilution (1 ml/tube) and microdilution (100 μl/well) in sterile 96 well microtiter plates (International Nunc, Napierville, Ill.) techniques in three separate experiments according to the National Committee for Clinical Laboratory Standards (1992 and 1999) in three separate experiments. Serial 2-fold dilutions in MHB of LF, LFC, antibiotic or combination of LF or LFC with antibiotic were inoculated with an overnight culture at a final inoculum of 10^6 cfu/ml in MHB. Effect of LF combination with antibiotic on MICs were determined by adding 0.5 mg or 1 mg/ml of LF to each antibiotic dilution. The MIC was defined as the lowest concentration of drug (highest dilution) that caused a complete inhibition of bacterial growth after an incubation of 18 h. Effect of LF or LFC combination with antibiotic on MIC was also determined by checkerboard method using 96 well microtiter plates. Each antibiotic dilution (50 μl) was serially added to the wells in vertical rows starting from the top (lower dilution) to the bottom. Lactoferrin or LFC (50 μl) were added to 50 μl of each antibiotic dilution and serially diluted starting at the left (lower dilution) to the right. After inoculation, the final concentration of antibiotic from top to bottom were 32 to 8, 2 to 0.5, 0.5 to 0.125 μg/ml for penicillin, cefazolin and neomycin, respectively. From left to right, the concentration of LF or LFC were 25 to 0.0244 mg/ml or 256 to 0.5 μg/ml respectively in a final volume of 100 μl/well. The microplate's were incubated at 37° C. for 24 h. Bacterial growth was measured optically at 540 nm using Spectra Max 250 Microplate Spectrophotometer System of Molecular Device (Fisher Scientific, Ottawa, Canada). Tubes were incubated at 37° C. for 18 h and bacterial growth was measured by visual examination and optically at 540 nm using a spectrophotometer (Philips PU 8800; Pye Unican Ltd, Cambridge, UK). The fractional inhibitory concentration (FIC) was calculated as described by Eliopoulos and Moellering (1991).
FIC antibiotic A=MICantibiotic A (in the presence of antibiotic B)/MICantibiotic A alone. FIC Index=FICantibiotic A+FICantibiotic B
The effects of the antibiotics were considered to be synergistic or indifferent when FIC Index was<1 or>1, respectively.

[3] = tested on: β-lactamase induction in S. aureus SHY97-4320; experiment: Induction of β-lactamase after LF pre-incubation (signal transduction); details: LF 1 mg/ml added 30 or 60 min before 8 μg/ml penicillin G, 4 h
Method: As the β-lactamase system is the best-known signal transduction system in S. aureus. We tested the ability of LF to inhibit signal transduction in S. aureus SHY97-4320 which is an inducible beta-lactamase producing strain. Bacterial cells were first exposed during 30 or 60 min to LF in broth and were further treated with 8 μg/ml of penicillin G for an additional 4 h. The cfu/ml were determined, cells aliquots were centrifuged and pellets were suspended in 10 mM HEPES buffer (pH 7.4) as mentioned above. Nitrocefin (100 μM) was added to 20 μl of cells in a final volume of 200 μl. Hydrolysis was measured at 486 nm on a Spectra Max 250 Microplate Spectrophotometer System of Molecular Device (Fisher Scientific, Ottawa, Canada). β-Lactamase activity was expressed as ΔO.D.486 nm/min and corrected for bacterial OD.

S. aureus strains = experiment: MIC / FIC determination, summary over strains; details: strains of Table 1
Excerpt: Staphylococcus aureus strains ATCC 25923 and 6538 and Escherichia coli ATCC 25922 were obtained from the American Type Culture Collection. Eight bovine mastitis clinical isolates of S. aureus (SHY97-3906, -3923, -4085 -4242, -4320 and -4343, RFT-1 and RFT-5) and one isolate of E. coli SHY97-3923-2 and one isolate of Kiebsiella pneumoniae SHY99-723-1 were kindly provided by the Laboratoire Provincial de Pathologie Animale of St-Hyacinthe and of Rock-Forest (Quebec, Canada), respectively. Nine β-lactam antibiotics resistant S. aureus strains (PC-1, NCTC 9789, 2076, 22260, ST79/741, 3804, RN9, FAR8, and FAR10) were obtained from Vanderbilt University School of Medicine (Nashville, Tenn., USA). […]
The MICs were determined by both macrodilution (1 ml/tube) and microdilution (100 μl/well) in sterile 96 well microtiter plates (International Nunc, Napierville, Ill.) techniques in three separate experiments according to the National Committee for Clinical Laboratory Standards (1992 and 1999) in three separate experiments. […] Effect of LF combination with antibiotic on MICs were determined by adding 0.5 mg or 1 mg/ml of LF to each antibiotic dilution. […] Effect of LF or LFC combination with antibiotic on MIC was also determined by checkerboard method using 96 well microtiter plates. […] The fractional inhibitory concentration (FIC) was calculated as described by Eliopoulos and Moellering (1991). […]

B1: LF: bovine lactoferrin, 80-kDa iron-binding glycoprotein found in milk (protein, UniProt P24627 20-708, looked up)
Lactotransferrin: APRKNVRWCTISQPEWFKCRRWQWRMKKLGAPSITCVRRAFALECIRAIAEKKADAVTLDGGMVFEAGRDPYKLRPVAAEIYGTKESPQTHYYAVAVVKKGSNFQLDQLQGRKSCHTGLGRSAGWIIPMGILRPYLSWTESLEPLQGAVAKFFSASCVPCIDRQAYPNLCQLCKGEGENQCACSSREPYFGYSGAFKCLQDGAGDVAFVKETTVFENLPEKADRDQYELLCLNNSRAPVDAFKECHLAQVPSHAVVARSVDGKEDLIWKLLSKAQEKFGKNKSRSFQLFGSPPGQRDLLFKDSALGFLRIPSKVDSALYLGSRYLTTLKNLRETAEEVKARYTRVVWCAVGPEEQKKCQQWSQQSGQNVTCATASTTDDCIVLVLKGEADALNLDGGYIYTAGKCGLVPVLAENRKSSKHSSLDCVLRPTEGYLAVAVVKKANEGLTWNSLKDKKSCHTAVDRTAGWNIPMGLIVNQTGSCAFDEFFSQSCAPGADPKSRLCALCAGDDQGLDKCVPNSKEKYYGYTGAFRCLAEDVGDVAFVKNDTVWENTNGESTADWAKNLNREDFRLLCLDGTRKPVTEAQSCHLAVAPNHAVVSRSDRAAHVKQVLLHQQALFGKNGKNCPDKFCLFKSETKNLLFNDNTECLAKLGGRPTYEEYLGTEYVTAIANLKKCSTSPLLEACAFLTR
B1 was tested, and the “proteins of approximately 59, 42 and 27 kDa in protein profile” value (S. aureus SHY97-4320 [1]; 1 mg/ml LF in combination to 8 μg/ml penicillin G) was “absent”, the “proteins of approximately 59, 42 and 27 kDa in protein profile” value (S. aureus SHY97-4320 [1]; compound alone: 8 μg/ml penicillin G or 1 mg/ml LF, 4-h of growth) was “absent” and the cell division (S. aureus SHY97-4320 [2]; LF 1 mg/ml alone or in combination with penicillin) was “Groups of multiple undivided cell”. For the same molecule, the “coverage of cells with WGA-gold” value (S. aureus SHY97-4320 [2]; after treatment with LF, P<0.005) was “less covered”, the “Decrease (of MIC of LF)” value (S. aureus SHY97-3906; by combination with penicillin) was 16 fold and the “MIC LF” value (S. aureus SHY97-3906; in combination with penicillin, checkerboard) was 1560 µg/mL. For the same molecule, the “induction of β-lactamase by penicillin G” value [3] was “completely block induction of β-lactamase” and the “MICs of lactoferrin alone” value (S. aureus strains) was “greater than 25 mg/ml”.
